Data reported in the domain aggregation screens of Martell et al. (2025).

Assay: soluble fraction after stress (log2 fold change); higher = more stays soluble; pooled small domains, quantitative proteomics
Settings: stress: 75 degC
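Further: 20 min heating vs room temperature control held 20 min.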

Sequence	soluble fraction (log2)
HMSENEIDELRRRFAREAMALMERKGEEVSRTRLAAELSVARARIDAVFPEESDLLEAVTAEWFA	-0.477
HMSENEVQAKVKEIVDRYAGDKSALIAILQDVQDEYRYLPKEALVSIQQQMNIPLSRVYEVATFYDAFS	-0.556
HMSEPIYTQLKEILTQKIVNGEFPPGARLPSEYELTELYHISRSTVRLALKELEASGMIVRRRGKGTFVSS	-2.39
HMSEPRYRQLATILAQEIRSNHSAGDQLPSEQALAKRFEVNRHTVRRAVDELVAAGMVTRHQGWGTQVV	-0.158
HMSEQGVITAKFASIVGNQNIQLVMFPDSVYLKGQVSSEEEKKRAETVASSLIQDRKIVNLIEFE	-0.075
HMSEQIALQFAKAKQHHTGIALKGIEALELRYKGYTGKEIAALYHTSPKSVFSWISRAKQKLRQN	-0.272
HMSEQLHALIDRLDDIPDDELKKNWPGTLRDLVDVISAELHRQGIEPAQAGMLARKVAAAQAGYMG	-0.486
HMSEQLKQIAERIKELRNIAGLGEEELAAKLDIPVDTYREYESGNVDIPVSFLYKISGMFNVELTAIL	-1.1
HMSEQLVGTVGHITVGTARTASPAEAKFLDAFEQPHYLLVEPIEPKDIFQQGDKVVLVKKQHHSWLATRYI	-1.2
HMSEQTLEDVRRLIEHLPESQKEVVKMRYYQDLSFKEIADLKGISINTALGRMHYAINNMRKMAKEYGL	-1.94
HMSEQVQLQAQVEDDLIGKRLDQVVAQLFPDYSRSRLQGWIKDGSLTVDGESRRPRDKMMGGEVVRVEATL	0.107
HMSEQVTMIDVEGKTETEAKKALEDLGLKVEITYESADAAAGTVIGQDVKAGSTVSEGSRVTLTVSGQ	0.528
HMSERQTGTVKWFNNAKGFGFITMADRPDDIFVHFRAIQGDGYRSLNEGEEVEFSLVEGPKGLQAEEVTK	-0.0682
HMSESAGKAFDLLFYLAKAGETVSLARLSRETGMNKATALRYLNVLESKGVVERSKLGWTLGLSLFELGSK	-2.96
HMSESIFTLYGDEKFEKIRYYLKERGFITLDALARFDFDELLFVPGVSELLISEAKQLFSRYDTSSLAAKE	-0.584
HMSETAEFIIQVNGKVRAKLQLPTDISKEEIQKLALADENVQKYLNGEPRKIIFPPNTRLVSIV	-0.315
HMSETEEWTVEGGQAGDRIDRHVAAMLGDDVSRSQVQQWIRAGRVTVNGRAVKPSDTVEEGDRVAVDLPEP	-0.189
HMSETVYQYVARQLRDMLGSGEIPVGQQLPTYRELAKRFQVSLSVIQRAMRQLKAEAVVSIAHGQGVKAVR	-1.16
HMSEVPVLVAKTDIKELELIDDRKVTLINVPQKFKMPGSFNSPEEVYNTIAAVPIKEGEQITKPRVTWP	0.0951
HMSEVSEILTRARFFAGVKTDAELSTLLKIPYGTLIGWKTRKNIPESRIAQMALILGIRRDTLIPA	-1.86
HMSEYIFGKNVVKEAFNNPSRIEEIYVLDKNMEFVSLAKKYHIKYTVITSSEMNKMVSGNHQGVVALVK	-2.1
HMSFDENEALRKALDVFWEKGYDGTSLSDLTEAMGINKPSLYATFGNKDQLFLKAIEMYENR	-1.4
HMSFDTFKKVFSNLVEKSGYSDAEIARRLGVNRSTISRWKSGEQSPPLPKVKEIANFFGVSPMVFVD	-0.41

Sequence	soluble fraction (log2)
HMSFFNGNQMKILRKKLQLNQEEMGEKLGIKKSYVSQLENNRKEITEEIDQILQELEQEYQDKM	-0.642
HMSFGESLKKLSIALNSIRKLATTDAGKKDPKVADLLGQIRDTFNSYRTHLRKNYPDLYSGIKNQL	-0.977
HMSFGKKLRSLRQEKKLSQVELSKKLNVTSQALSQYELGKRIPDAEMIIRIADFFDVSVDYLLDRT	-1.69
HMSFGWESLENKEGVADTDLHPSGWVRIEDSRIFVVSEGDFINKGSKVTVLTVDGNRVVVRELI	-2.1
HMSFNISPTKKLILELIMNGTAAVEAIAVKAGISKGMAYNHLRELRSMGYITDEGGYKITDSGRLAV	-2.39
HMSFNNHYEILQVQPSADREVIEAAAKALLKKHHPDLGGRNTITSHIVQAKKVLTDTSQRADFDARLRERL	-0.135
HMSFNSQENKSVLWQFLLENNFFIGLSDKKFNKVKDIFEKNIQSISIVNDSISNKNKILIQKMMEELELL	-3.38
HMSFPDTYFKGNKVIGLSYNDLKKFLNNAGYSKFDEEVEEWGEKRVSIEDDMVDFYLEDDKVVSI	-0.361
HMSFPFLMPNLEGLQLDQVRVILEENGLEIGQENYQPDSKFGPGTIINHQPSVDTVVQTGQKVNLQISGTD	0.126
HMSFSSLSNDILSEIQKDNNITYDELSEKLQKDRATIYRNMKKLVENGLLKRVGGRKSGHWEIIE	-0.102
HMSFVDFYGLFTTELQRLAELPVTADELIKNTGLHKSQLTDWLKRAEEDGVVKKLNRPVRYQVEKK	-1.66
HMSGAQIQQLLESRAPQPGMNPDMIVRRKTYMNNVFNALKGALLRVANGSSPEEVKTEVDAAIQVDPDKL	0.353
HMSGEVLTAVVPETASGERLDKVLPQIFPPYSRSQLQTWLKEGRVTLDREIPAARLAVIGGETLRLEVPSL	-0.112
HMSGFFVYPNPAKSNIIHFPNKKSFYIYDTSGRLLIEGKGKDFIDVSTLDRGVYLLKTFENDIVKIII	-1.1
HMSGGIVRLAVKPWGEVFVDGASRGITPPLKQLTLDAGVHRIEIRNPAGPSWTKDVDVVAGQPTTVSHRF	-0.494
HMSGITDIITDGKATSRPVVVTDGGHIRVLSPYTSFAIYTLGGMSLPTESRLEPGIYIVVVDSNAVKVAV	-1.59
HMSGLGELTPRELEVLELMAQGLSNSQIAGRLFLSGAAVAKHVSSIFSKLGFEPGDENRRVRAILAFLNR	-1.41
HMSGLLTTSKLAQKHKMKTEPMLEKLTAAGYLEWRDDKHSLTEQGKKAGGQFKTGRFGAYFLWPEDLV	-0.116
HMSGPDGLTEREIEVLRLLASGLSNRAIGERLYISTNTAANHVRSILLKTGAANRTQAAMYAADHEML	-1.66
HMSGPFTELTPREREILSHLAEGQSNKVIARHLQISDGTVKLHVKAILRKLEVHSRVEAAVMAVEHGV	-2.18
HMSGPMVPNVVGLSEEMARALLSDYSITIKHAHDGVIPKDRVASQLPLATTHAKVGSSVVLTIS	-0.557
HMSGQLTEEQVKQIVTTAVKNSSGSTLTAAEVSRIVSTAVANNLTADQVKTVVNNALAGITTDISTLKA	0.124
HMSGSFDVTLDYLNSLRNLYPAIDVEQEFRKMYAWLDSNPKNRKTERGIKRFITGWLGRAQDKAP	-1.31

Sequence	soluble fraction (log2)
HMSGSLLQTRQRLQALTDLGHYKGDLAAAWGPEAIEALKRAQAALGITVDGKWGPETEDAIQVALQAQT	-0.00363
HMSGSPREQAESEYRKAIAAVNQGRVSEATESLRAALRLDAFQVAARQLLVKLLLEAKNQDEAIQVLR	-0.986
HMSGTMYATAEVNVRSTYSSDGTIYGTLSKGTAVEITGTTDNGWVRVKYNGTTAYVYADYLSWKAP	-2.41
HMSGYAIVNNQPGRTLNLRNSPSQSNNIIGQIPSGTRLQLISRGETWSEVIFQTTRGFVMSSFLRFET	-2.38
HMSHGNAALTPRQRLRLARLVVDDQWSVSAAAEFFRVSYPTAAKWARRYVELGPAGMADRSS	-1.62
HMSHRVGDVVELTAVRMNDQGVFLDAGTGNTSDDILLHKHQMTSPVSVGDKVKVQLYLDAKNRITASMKL	-0.36
HMSIEIIEITSNSSPKNLSEIIDIDATQIVADLMGLGIMKAIDTPLENSEIEQLLEKYNLIAEFVE	-2.76
HMSILEIFGRNVQKYRKEQRLSQEKLAEYAGLHRTYIGMIERAEKNITLVNIEKIAKALNINLTKLLE	-4.25
HMSILTELDIGDKVEVVAGPFKGIQANITRIEPVRKEVTVILLDAPYQLPVTVDADYLKIIQKS	-1.63
HMSINISFEPADHLGKDVIFIRFPYDNEWIQRVRKLKGAKWSQSQRAWHVPDTEHYRTLFQLPQKI	-2.73
HMSIQDLMNSKDLSGFKVEMLSNEDIVKYKSMLQSSGFSESQAEQLALQRGLPTSELIKLRTRISDVAVT	0.199
HMSIQELMNSKDLSSFKVEMLSDEDIAKYKGLLQNSGLTEAQAEQMALQRGLPSSELLKLKARLSGI	0.118
HMSIQREIILEVIKNNRTHPTAEEIYILVTKKEPKISRSTVYRNINILVEKGIIEKITIATGPDRYDY	-1.53
HMSISDEDFAKLLDFVKEKWDAGELDNAEDIKAAISEGEKEFGVSLDESTRTTLASALQQLN	0.274
HMSIYDAPIEDLKFSTRIFNSLKRADIHTVADLIAHSRDDLMKVRNLGATSLDELIEKLGTHGLQLADP	-0.412
HMSIYYQIYESLKKDLSNNLYKPGEKLPSENVLSKRFGVNRHTIRRSLQLLKNEGILFSKRGSGIIVHD	-3.45
HMSKDKEKRTREHVLGILKKYDKVMTDKAFTVFKKMIKDESILEMELIKLINFIGERKEIRSKDVLAVVTE	-0.504
HMSKEIQNILASLPSVDVLLKQIDPIYPHGKAKEATQQVVARLRESVVDGTRKTVIDQKEVIAMIHKQLEE	-0.293
HMSKETTYEVLSLKGDEWQTDTIYSDRDEAIEAARNLHGDPHIDGAKVISEVYDDKTGGSKETTIFNT	0.535
HMSKHAIQNELEKIEGIGKQTADSLLKEFKSVKKLRTLPLSEIEKVIGKSKATIVFEALHKDK	0.00931
HMSKHATLLEALADLSVKLKPHSQLPSERALSEEYGVSRMTLRRAIDVLQARGYIYSVPSKGLFVSEP	-1.89
HMSKHATLLEALAELTVKLKPHTQLPSERQLSEDFGVSRMTLRRAIDVMQSRGYIYTVPSKGLYVSEP	-1.72
HMSKIRTFRVKTVAVDQAYQVLKDYSPIKISTESNAVIIDLDESKTPAEIAGYLEKNGIKVDNIEVIAESE	0.962
